The chains are these.
B1: Peptide-62 (peptide)
peptide: YCAGHAAQYINKCL
notes: alanine scanning peptide of Peptide-39 (W7A)
B2: Peptide-68 (peptide)
peptide: YCAGHAWQYINKCA
notes: alanine scanning peptide of Peptide-39 (L14A)
B3: Peptide-65 (peptide)
peptide: YCAGHAWQYANKCL
notes: alanine scanning peptide of Peptide-39 (I10A)
B4: Peptide-66 (peptide)
peptide: YCAGHAWQYIAKCL
notes: alanine scanning peptide of Peptide-39 (N11A)
B5: Peptide-63 (peptide)
peptide: YCAGHAWAYINKCL
notes: alanine scanning peptide of Peptide-39 (Q8A)

No end group written: not given here.

One test addresses T1, Ab-1.
T1 construct: also called anti-CD28 scFv harbored in Ab-1
The test can be described thus: BLI (Octet), 200 nM peptide, 100 nM Ab-1.
Consider RDWCPRDLWVHCFA (cysteine pairing not given here; also: biotinylated, site not given here) [Peptide-3], for which the Octet signal stood at 1.22 and the t1/2 was 4.9 min.
Taken in the same sequence, the figures for TDWCPRDLWVHCFA (cysteine pairing not given here; also: biotinylated, site not given here) [Peptide-16] were 1.34 and 4.2 min.
With QDWCPRDLWVHCFA (cysteine pairing not given here; also: biotinylated, site not given here) [Peptide-6], the Octet signal is 1.12 and the t1/2 stood at 3.6 min.
With EDWCPRDLWVHCFA (cysteine pairing not given here; also: biotinylated, site not given here) [Peptide-7], the Octet signal was found to be 1.02 and the t1/2 is 3 min.
On the same counts, the results for KDWCPRDLWVHCFA (cysteine pairing not given here; also: biotinylated, site not given here) [Peptide-12] are 1.13 and 4 min.

A further test has as its target T2, anti-CD28 Fab (SEQ ID NOs: 202, 203).
T2 construct: biotinylated and captured on neutravidin coated plates in the phage ELISA
Description: phage binding ELISA on captured biotinylated Fab.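 Note: clonal phage supernatants added to wells preincubated with CD28 antigen or blocking buffer only, bound phage detected by ELISA with horseradish-conjugated anti-M13 antibody.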
On to TCAAGAHWPWPTCF [Phage-938], for which the “Anti-CD28 Fab (SEQ ID NOs: 202, 203) signal” value came out at 2.15.
Still for that read-out and setting: with LCAAGAHYPWPQCL [Phage-937] the figure was 2.15.
As to LCNAGATYSWPTCL [Phage-940], the “Anti-CD28 Fab (SEQ ID NOs: 202, 203) signal” value stood at 2.14.
As to NCSAGAQWPWPICL [Phage-936], the “Anti-CD28 Fab (SEQ ID NOs: 202, 203) signal” value came to 2.15.

The next test shares this target. Description: phage binding ELISA on captured Fab, competitor CD28 antigen.
With TCAAGAHWPWPTCF [Phage-938], the “Anti-CD28 Fab signal in the presence of CD28” value (shortened to “Anti-CD28 Fab signal”) came to 0.07.
Consider LCAAGAHYPWPQCL [Phage-937], for which the “Anti-CD28 Fab signal” value stood at 0.07.
Turning to LCNAGATYSWPTCL [Phage-940], the “Anti-CD28 Fab signal” value was determined as 0.06.
For NCSAGAQWPWPICL [Phage-936], the “Anti-CD28 Fab signal” value was determined as 0.08.

Another test concerns the target anti-CD28 Fab. The test can be described thus: competition ELISA, alanine scan of Peptide-39, Fab binding plate-bound CD28.
Consider YCAGHAWQYINKCL (cysteine pairing not given here; also: biotinylated, site not given here, synthetic peptide), for which the IC50 was found to be 12600 µM.
Molecule B1 gave a half-maximal inhibitory concentration (IC50) of 3160 µM.
B2: the IC50 is 98600 µM.
Molecule B3 gave an IC50 of 102000 µM. The IC50 values of the last two molecules are within 1.5-fold of each other.
As for B4, the IC50 came to 5490 µM.
In the case of B5, the IC50 came out at 12300 µM.

The next test concerns the target T1, Ab-1. The test can be described thus: BLI (Octet), peptide on sensor, Ab-1 titrated, 1:1 model.
On to RDWCPRDLWVHCFA (cysteine pairing not given here; also: biotinylated, site not given here) [Peptide-3], for which the Kd turned out to be 0.0203 µM and the t1/2 was 6.2 min.
With TDWCPRDLWVHCFA (cysteine pairing not given here; also: biotinylated, site not given here) [Peptide-16], the dissociation constant Kd amounted to 0.0255 µM and the t1/2 turned out to be 4.7 min.
As for QDWCPRDLWVHCFA (cysteine pairing not given here; also: biotinylated, site not given here) [Peptide-6], binding was put at a Kd of 0.0246 µM and the t1/2 is 4.2 min.
EDWCPRDLWVHCFA (cysteine pairing not given here; also: biotinylated, site not given here) [Peptide-7] yielded a Kd of 0.0232 µM and a t1/2 of 3.1 min.
KDWCPRDLWVHCFA (cysteine pairing not given here; also: biotinylated, site not given here) [Peptide-12] displayed a Kd of 0.0261 µM and a t1/2 of 4.5 min.

For another test, the target named is T3, anti-CD28 Fab (SEQ ID NOs: 202, 203).
T3 construct: biotinylated when captured in the phage ELISAs
The test can be described thus: binding ELISA, peptide captured, anti-CD28 Fab titrated.
Regarding ACDTYFAGMINECF (cysteine pairing not given here; also: biotinylated, site not given here) [Peptide-31], the EC50 came to 0.097 µM.
Molecule YCAGHAWQYINKCL (cysteine pairing not given here; also: biotinylated, site not given here) yielded an EC50 of 0.049 µM.
The same measure, in the same setting: under YCAGHSPINIGKCL (cysteine pairing not given here; also: biotinylated, site not given here) [Peptide-36] stands 0.337 µM; under SCAAGASYAWPYCL (cysteine pairing not given here; also: biotinylated, site not given here), 0.054 µM.

Another test deals with T1, Ab-1. The test can be described thus: competition ELISA, peptide titrated vs 1 nM Ab-1 binding plate-bound CD28.
In turn, RDWCPRDLWVHCFA (cysteine pairing not given here; also: biotinylated, site not given here) [Peptide-3] showed a half-maximal inhibitory concentration (IC50) of 0.17 µM. In other words, the sub-micromolar range.
For TDWCPRDLWVHCFA (cysteine pairing not given here; also: biotinylated, site not given here) [Peptide-16], the IC50 came to 0.59 µM.
With QDWCPRDLWVHCFA (cysteine pairing not given here; also: biotinylated, site not given here) [Peptide-6], the IC50 was 0.33 µM.
Turning to EDWCPRDLWVHCFA (cysteine pairing not given here; also: biotinylated, site not given here) [Peptide-7], the IC50 was 0.3 µM. This IC50 and that of the molecule before are within 1.5-fold of each other.
Molecule KDWCPRDLWVHCFA (cysteine pairing not given here; also: biotinylated, site not given here) [Peptide-12] yielded an IC50 of 0.19 µM.

Another test addresses T3, anti-CD28 Fab (SEQ ID NOs: 202, 203). Description: binding ELISA, peptide captured, anti-CD28 Fab titrated. This is another data set of the same source.
SCAAGASYAWPYCL (cysteine pairing not given here; also: biotinylated, site not given here) showed an EC50 of 0.0189 µM.

The target of a further test is anti-CD28 Fab. The test can be described thus: competition ELISA, alanine scan of Peptide-44, Fab binding plate-bound CD28.
SCAAGASYAWPYCL (cysteine pairing not given here; also: biotinylated, site not given here, synthetic peptide) returned an IC50 of 7890 µM.
With ACAAGASYAWPYCL [Peptide-51], the IC50 stood at 21000 µM. This IC50 lies about 2.7-fold higher than the previous one.
As for SCAAGASYAWPYCA [Peptide-58], the IC50 worked out at 76400 µM.
Consider SCAAGAAYAWPYCL [Peptide-53], for which the IC50 stood at 7420 µM. This IC50 lies about 10-fold lower than the previous one.
Molecule SCAAGASYAWPACL [Peptide-57] registered an IC50 of 13000 µM.

In another test the target is T1, Ab-1. The test can be described thus: binding ELISA, peptide captured, Ab-1 titrated.
As for RDWCPRDLWVHCFA (cysteine pairing not given here; also: biotinylated, site not given here) [Peptide-3], the EC50 came to 0.0146 µM.
The same measure, in the same setting: with TDWCPRDLWVHCFA (cysteine pairing not given here; also: biotinylated, site not given here) [Peptide-16] the figure was 0.024 µM; with QDWCPRDLWVHCFA (cysteine pairing not given here; also: biotinylated, site not given here) [Peptide-6], 0.0257 µM.
For the molecule EDWCPRDLWVHCFA (cysteine pairing not given here; also: biotinylated, site not given here) [Peptide-7], the EC50 amounted to 0.0328 µM.
Molecule KDWCPRDLWVHCFA (cysteine pairing not given here; also: biotinylated, site not given here) [Peptide-12] yielded an EC50 of 0.0197 µM.

Another test has as its target T1, Ab-1. Description: competition ELISA, peptide titrated vs 1 nM Ab-1 binding plate-bound CD28. The source holds these as a separate data set.
Turning to VPWCQIISGLECLT (cysteine pairing not given here; also: biotinylated, site not given here) [Peptide-25], the IC50 is more than 100 µM.
On to IYWCPIDRWNDCYN (cysteine pairing not given here; also: biotinylated, site not given here) [Peptide-26], for which the IC50 worked out at 0.41 µM.
Consider IDWCPLHLWHECYH (cysteine pairing not given here; also: biotinylated, site not given here) [Peptide-24], for which the 50% inhibitory concentration (IC50) was determined as 1.52 µM. Compared with the last molecule, the IC50 is about 3.7-fold higher.
In turn, LDWCPRHLWALCFN (cysteine pairing not given here; also: biotinylated, site not given here) [Peptide-22] showed an IC50 of 0.47 µM.

In the next test the target is T1, Ab-1. The test can be described thus: BLI (Octet), 200 nM peptide, 100 nM Ab-1. The source holds these as a separate data set.
In the case of VPWCQIISGLECLT (cysteine pairing not given here; also: biotinylated, site not given here) [Peptide-25], the “Octet signal (200 nM peptide)” value was determined as 0.166.
Consider IYWCPIDRWNDCYN (cysteine pairing not given here; also: biotinylated, site not given here) [Peptide-26], for which the “Octet signal (200 nM peptide)” value worked out at 0.705.
Consider IDWCPLHLWHECYH (cysteine pairing not given here; also: biotinylated, site not given here) [Peptide-24], for which the “Octet signal (200 nM peptide)” value was found to be 0.838.
Take LDWCPRHLWALCFN (cysteine pairing not given here; also: biotinylated, site not given here) [Peptide-22]: the “Octet signal (200 nM peptide)” value is 0.697.

Another test addresses T1, Ab-1. Description: binding ELISA, peptide captured, Ab-1 titrated. The source holds these as a separate data set.
For the molecule VPWCQIISGLECLT (cysteine pairing not given here; also: biotinylated, site not given here) [Peptide-25], the concentration for a half-maximal effect (EC50) worked out at 0.0549 µM.
For IYWCPIDRWNDCYN (cysteine pairing not given here; also: biotinylated, site not given here) [Peptide-26], the EC50 worked out at 0.0076 µM. This EC50 is about 7.2-fold lower than that of the molecule before.
IDWCPLHLWHECYH (cysteine pairing not given here; also: biotinylated, site not given here) [Peptide-24] showed an EC50 of 0.0133 µM.
On the same count and under the same terms, under LDWCPRHLWALCFN (cysteine pairing not given here; also: biotinylated, site not given here) [Peptide-22] stands 0.0082 µM.

(Values after patent US20260274955A1 (JANUX THERAPEUTICS, published 2026).)
